Experimental data as given in PMC2861611 (Molecular Biology of the Cell, 2010).

Target: T1, GST-PDZK1 tail (human, UniProt Q5T2W1 459-519)
T1 sequence (looked up): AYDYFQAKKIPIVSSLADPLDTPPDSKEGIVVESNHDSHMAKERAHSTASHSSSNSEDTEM
Assay: pull-down

- amount precipitated relative to full-length EBP50 (1-358): 2.4 times
B1: EBP50 (1-354) (domain or fragment, UniProt O14745 1-354, looked up)
chain: MSADAAAGAPLPRLCCLEKGPNGYGFHLHGEKGKLGQYIRLVEPGSPAEKAGLLAGDRLVEVNGENVEKETHQQVVSRIRAALNAVRLLVVDPETDEQLQKLGVQVREELLRAQEAPGQAEPPAAAEVQGAGNENEPREADKSHPEQRELRPRLCTMKKGPSGYGFNLHSDKSKPGQFIRSVDPDSPAEASGLRAQDRIVEVNGVCMEGKQHGDVVSAIRAGGDETKLLVVDRETDEFFKKCRVIPSQEHLNGPLPVPFTNGEIQKENSREALAEAALESPRPALVRSASSDTSEELNSQDSPPKQDSTAPSSTSSSDPILDFNISLAMAKERAHQKRSSKRAPQMDWSKKNEL
